Results from patent publication US20090305953A1.
Values joined by “and” are separate entries in the source; they are usually repeats but may differ in a detail not shown here. Equal values may be shown once.

How the values were obtained:
[1] = target: human serum albumin (human) (UniProt P02768); assay: calculated from ITC Ka; 10 µM antibiotic, 6×10^-4 M human serum albumin assumed
[2] = target: human α-glycoprotein (human) (UniProt P02763); assay: calculated from ITC Ka; 100 µM antibiotic, 1.5×10^-5 M α-glycoprotein assumed
[3] = target: human α-glycoprotein (human) (UniProt P02763); assay: calculated from ITC Ka; 10 µM antibiotic, 1.5×10^-5 M α-glycoprotein assumed
[4] = target: human α-glycoprotein (human) (UniProt P02763); assay: calculated from ITC Ka; 1 µM antibiotic, 1.5×10^-5 M α-glycoprotein assumed
[5] = target: human serum albumin (human) (UniProt P02768); assay: calculated from ITC Ka; 1 µM antibiotic, 6×10^-4 M human serum albumin assumed
[6] = target: human serum albumin (human) (UniProt P02768); assay: calculated from ITC Ka; 100 µM antibiotic, 6×10^-4 M human serum albumin assumed
[7] = target: N,N′-diacetyl-Lys-D-Ala-D-Ala; assay: ITC, tri-peptide injected into dalbavancin, 10 °C, no HSA
[8] = target: N,N′-diacetyl-Lys-D-Ala-D-Ala; assay: ITC, tri-peptide injected into dalbavancin, 25 °C, apparent value in the presence of 13.6 µM HSA
[9] = target: human serum albumin (human) (UniProt P02768); assay: calculated from ITC Ka; 500 µM antibiotic, 6×10^-4 M human serum albumin assumed
[10] = target: N,N′-diacetyl-Lys-D-Ala-D-Ala; assay: ITC, no HSA
[11] = target: N,N′-diacetyl-Lys-D-Ala-D-Ala; assay: ITC, tri-peptide injected into dalbavancin, 25 °C, apparent value in the presence of 34.2 µM HSA
[12] = target: human α-glycoprotein (human) (UniProt P02763); assay: calculated from ITC Ka; 250 µM antibiotic, 1.5×10^-5 M α-glycoprotein assumed
[13] = target: human serum albumin (human) (UniProt P02768); assay: calculated from ITC Ka; 165 µM antibiotic, 6×10^-4 M human serum albumin assumed
[14] = target: human α-glycoprotein (human) (UniProt P02763); assay: calculated from ITC Ka; 500 µM antibiotic, 1.5×10^-5 M α-glycoprotein assumed
rat albumin (rat) = rat albumin (rat) (UniProt P02770); assay: ITC, single-site model
dog albumin (dog) = dog albumin (dog) (UniProt P49822); assay: ITC, single-site model
bovine albumin (bovine) = bovine albumin (bovine) (UniProt P02769); assay: ITC, single-site model
[15] = target: human α-glycoprotein (human) (UniProt P02763); assay: ITC, single-site model
[16] = target: human α-glycoprotein (human) (UniProt P02763); assay: calculated from ITC Ka; 165 µM antibiotic, 1.5×10^-5 M α-glycoprotein assumed
[17] = target: N,N′-diacetyl-Lys-D-Ala-D-Ala; assay: ITC, tri-peptide injected into dalbavancin, 25 °C, apparent value in the presence of 80.7 µM HSA
[18] = target: human serum albumin (human) (UniProt P02768); assay: calculated from ITC Ka; 250 µM antibiotic, 6×10^-4 M human serum albumin assumed

Chain of human α-glycoprotein (human) (P02763 19-201): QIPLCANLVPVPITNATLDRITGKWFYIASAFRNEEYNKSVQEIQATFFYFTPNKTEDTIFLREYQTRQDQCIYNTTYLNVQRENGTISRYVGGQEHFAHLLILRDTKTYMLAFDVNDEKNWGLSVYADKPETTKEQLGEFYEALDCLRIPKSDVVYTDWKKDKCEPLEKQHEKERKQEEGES
Chain of dog albumin (dog) (P49822 25-608 limits assumed): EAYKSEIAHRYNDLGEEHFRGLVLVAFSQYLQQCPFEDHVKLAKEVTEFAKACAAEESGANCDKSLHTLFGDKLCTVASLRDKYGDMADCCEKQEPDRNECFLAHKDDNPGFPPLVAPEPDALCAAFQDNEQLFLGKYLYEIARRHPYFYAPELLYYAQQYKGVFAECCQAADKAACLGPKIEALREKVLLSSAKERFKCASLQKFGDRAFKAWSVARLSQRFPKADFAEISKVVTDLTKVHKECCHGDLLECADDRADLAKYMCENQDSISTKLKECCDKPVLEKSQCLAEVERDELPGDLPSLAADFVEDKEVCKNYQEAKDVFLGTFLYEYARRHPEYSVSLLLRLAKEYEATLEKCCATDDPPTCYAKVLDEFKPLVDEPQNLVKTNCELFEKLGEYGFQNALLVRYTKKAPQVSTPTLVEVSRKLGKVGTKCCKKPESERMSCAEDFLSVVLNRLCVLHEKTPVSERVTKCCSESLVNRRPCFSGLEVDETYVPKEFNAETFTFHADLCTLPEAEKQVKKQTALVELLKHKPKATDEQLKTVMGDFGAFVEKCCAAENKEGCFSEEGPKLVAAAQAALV
Chain of rat albumin (rat) (P02770 25-608 limits assumed): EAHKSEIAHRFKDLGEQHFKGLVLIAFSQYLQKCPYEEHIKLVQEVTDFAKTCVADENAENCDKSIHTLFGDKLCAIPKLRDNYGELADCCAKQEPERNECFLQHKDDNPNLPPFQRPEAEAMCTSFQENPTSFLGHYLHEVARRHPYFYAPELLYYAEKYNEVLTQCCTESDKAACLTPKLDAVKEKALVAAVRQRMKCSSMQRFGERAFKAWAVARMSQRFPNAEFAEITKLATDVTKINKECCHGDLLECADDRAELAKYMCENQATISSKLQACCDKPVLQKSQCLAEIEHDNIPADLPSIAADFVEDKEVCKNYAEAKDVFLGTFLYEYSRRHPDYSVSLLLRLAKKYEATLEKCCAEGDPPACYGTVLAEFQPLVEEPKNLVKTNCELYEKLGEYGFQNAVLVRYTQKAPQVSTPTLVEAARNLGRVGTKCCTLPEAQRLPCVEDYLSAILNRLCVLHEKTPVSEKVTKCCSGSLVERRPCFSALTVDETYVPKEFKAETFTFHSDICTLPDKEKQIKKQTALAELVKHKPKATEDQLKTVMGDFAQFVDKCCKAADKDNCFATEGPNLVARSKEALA
Chain of bovine albumin (bovine) (P02769 25-607 limits assumed): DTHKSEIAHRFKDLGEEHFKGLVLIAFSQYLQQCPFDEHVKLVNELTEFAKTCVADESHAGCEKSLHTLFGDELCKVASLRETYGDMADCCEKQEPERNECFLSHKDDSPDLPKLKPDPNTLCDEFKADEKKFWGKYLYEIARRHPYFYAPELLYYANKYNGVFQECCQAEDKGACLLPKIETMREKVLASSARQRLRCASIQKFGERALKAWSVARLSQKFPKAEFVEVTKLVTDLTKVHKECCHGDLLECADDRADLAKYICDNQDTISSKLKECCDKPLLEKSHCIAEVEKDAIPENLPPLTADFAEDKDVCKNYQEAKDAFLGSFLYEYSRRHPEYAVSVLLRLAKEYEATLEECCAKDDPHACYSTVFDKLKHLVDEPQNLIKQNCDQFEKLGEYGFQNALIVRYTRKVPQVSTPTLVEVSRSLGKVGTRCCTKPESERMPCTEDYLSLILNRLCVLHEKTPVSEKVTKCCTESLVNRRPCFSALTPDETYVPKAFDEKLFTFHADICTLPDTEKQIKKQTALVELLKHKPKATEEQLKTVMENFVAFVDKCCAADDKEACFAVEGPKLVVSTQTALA

Substance: teicoplanin (peptide)
- calculated percent binding [1]: 98.3%
- calculated percent binding [2]: 6%
- calculated percent binding [3]: 9.1%
- calculated percent binding [4]: 9.6%
- calculated percent binding [5]: 98.3%
- calculated percent binding [6]: 98%

Substance: dalbavancin (peptide)
- N [7]: 0.59 and 0.56
- calculated percent binding [1]: 98.8%
- N [8]: 0.35 and 0.37
- calculated percent binding [9]: 98%
- N [10]: 0.5
- N [11]: 0.68
- calculated percent binding [2]: 26.2%
- calculated percent binding [3]: 68.2%
- calculated percent binding [12]: 11.4%
- calculated percent binding [13]: 98.6%
- calculated percent binding [14]: 5.9%
- calculated percent binding [4]: 73%
- calculated percent binding [5]: 98.8%
- N (binding stoichiometry, protein per dalbavancin) (rat albumin (rat)): < 1
- N (binding stoichiometry, protein per dalbavancin) (dog albumin (dog)): < 1
- N (binding stoichiometry, protein per dalbavancin) (bovine albumin (bovine)): < 1
- N (binding stoichiometry, protein per dalbavancin) [15]: < 1
- calculated percent binding [16]: 16.9%
- N [17]: 0.83
- calculated percent binding [6]: 98.7%
- calculated percent binding [18]: 98.5%
